Measurements published in the nanobody polyreactivity screen of Harvey et al. (2022).

Assay: yeast display, Sf9 membrane polyspecificity reagent, FACS + sequencing; frameworks hold sequencing errors
In short: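 Galactose induction of a Saccharomyces cerevisiae BJ5465 synthetic nanobody display library ran 36–48 hours. The cells were then stained for 1 hour at 4 °C with 10% biotinylated, detergent-solubilized Sf9 membrane reagent, pulled down on streptavidin microbeads and FACS-sorted into low and high (top ~1%) gates on expression and reagent-binding fluorescence. Labels for polyreactivity follow the gate of origin.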

| Sequence | polyreactivity (PSR sort gate) |
| --- | --- |
| QGQLVESGGGLVQAGGSLRLTCSASGSTFDSYGMGWYRQAPGKERELVASISSRGGSTYYADSVKGRFTISRDTAKNTVYLQMNSLKPEDTAVYYCAADWLSWFHGYGMYYWGQGTQVTVSS | low polyreactivity |
| QGQLVESGGGLVQEGGSLRLSCAASGSTFKRYVMGWYRQAPGKERELVAAITWSGTRTYYADSVKGRFTISRDNAKNTVYLQMNSLKPVDTAVYYCAARLYGGYDWGQGTQVTVSS | high polyreactivity |
| QGQLVESGGRLVQAGGSLRLSCAASGFIFRSYAMGWYRQAPAKERELVAVISRRGVNTPYADSVKGRFTISRDTSKNTVYLQMNSLKAEDTAVYYCAKGLTALGDYWGQGTQVNVSS | high polyreactivity |
| QGQLVESGGVLVQGGGSLRLSCAASGSIFVYNAMGWSRQAPGKERELVAANTSSGASTYYADSVKGRFPISRDNAKNTVYLQMISLNPEDTDVYYCNAGADSTVGNYVTSFSQYDFWGQGTQVTVSS | low polyreactivity |
| QGQLVQSGVGLVQAGGSLSLSCAASGIIFTWYDMGWYRQAPGKERELVAAISNSGGSTYYADSVKGRFTISRDNAKNTVYLQMNSLKPEDTAVYYCNAGSYVCEEDYWGQGTQVTVSS | high polyreactivity |
| QGQPVESGGGLVQAGGILRLSCAASGFISGGNAMGWDRQAPGKEREFVAAIDNTGSTYYADSVKGRFTISRDNEKNTVYLQMISLKPEDTAVYYFNAEVTEDYVDNDYGGQGTQVTVSS | low polyreactivity |
| QGQRVESGGGLVQAGGSLRLSCAPSGRTFKYYAMGWYRQAPGKERELFAAISYTGGSTYFADSVMGRFTISRDNAKNTVYLQMNSLKPEDTAVYYCARSYYTNGNALKRDYWGQGTQVTVSS | high polyreactivity |
| QHQLVESGGGLVQAGASLRLSCAASGRTFFKNAKGWYRQAPGKERELVAGISRTGSTNYADSVKGRFTISSDNAKNTVYLEMNSLKPEDTAVYYCAAGVLGLPLRHRYDYWGQGTQVTVSS | low polyreactivity |
| QIQLVESGGGLDQAGGSLRISCAASAYTYVDYIGCYIPAPGKERELVADIDNSGGGTYYADSVTGRFTISRDNAKNTVYFLMNSLKAEDTAVYYCAAEFPYDDYYSNRDYDYWGQGTQVTVSS | low polyreactivity |
| QIQLVESGGGLVQAGGSLRLSCAASGSIFSGYAMGWYRQAPGKERELVAAITSGGSTDYADSVKGRFTISRDNAKNTVYLQMNSLKPEDTAVYYCAAEGGYSSYGYDYWGQGTQVTVSS | low polyreactivity |
| QLHLVESGGGLVQAGGSLRLSCAASGITFAGYALGWYRQAPGKERELVASITWGGGRTYYADSVKGRFTSSRDNAKNTVYLQMNSLKPEATAVYYCATRRRPQYNKYDYWGQGTQLTVSS | high polyreactivity |
| QLQHVESGGGLVQAGGSLRLSCAASGYIFPVNAMGSYRQAPGKERELVASLTSGGSTYYADSVKGRFTISRDNAKNTVYLQMNSLKPEDTAVYYCAAQLGYAKPYVYGEWYYYWGQGNQVTVSS | low polyreactivity |
| QLQIVESGGGLVQAGGSLRISCAASVFTFCKYAMGWYRPAPGKERELVAAISVSGGRTYSADSVKGRFTISRDNAKNTVYLQMNSLKPEDTEVYYCNATQWRPYVGGEYWGQGTQVTVSS | high polyreactivity |
| QLQLEESGGGLVQAGASLPLSCAASGLTFVEYAMGCYRQAPGKEREFVAAIRSRGGSTYYADSVKGRFTISRDNAKTTVYLQMNSLKPEDTAVYYCNADGYFWGQGTQVTVSS | low polyreactivity |
| QLQLEESGGGLVQAGGSLRLSCAASGRIFNYYAMGWYRPAPGKEKELVAAISTVCGSTYYADSVKGRFTISRDKAKNTVYIQMHSLKPEDTSVYYCAAYQYYDFSYSYDYWGQGTQVTVSS | low polyreactivity |
| QLQLQESGGGLVQAGGSLRLTCAASGYIFPTAIMRWYRQAPGTERKLVAASNPGSNTYYADSVKGRFTFSLDNAKNTVYLQMNSLTPEDAAVYSCAVSIWLDGTLDFWGQGTQVTVSS | low polyreactivity |
| QLQLVDSGGGLVQAGGSLRLSCAASGKTISSYAMGWYRQAPGKEREFVAAISRGARTYYADSVKGRFTISRDNAKNTVYLQMNSLKPEDTAVYYCATRWPHYGGYYYWGQGTQVTVSS | high polyreactivity |
| QLQLVDSGGGLVQAGGSLRLSCAASGSIFGAYAMGWYRHAPGKERELVAAINYGGATTYYADSVKGRFTISRDNAKNTVYLQMNSLIPEDTAVYYCAADYLYAYGDVADVYGWYAYYYWGQGTQVTVSS | low polyreactivity |
| QLQLVESGGGLDQAGGSLRLSCAASGGTFFKNAMGWYRQAPGNERELVAVIDTISTSTYYAESVKGRFTISRDNAKNTVYLQMNSLKPEDTAVYYCAAEYGPGLTEGLYYYWGQGTQVTVSS | high polyreactivity |
| QLQLVESGGGLFQAGGRLRLSFAATGSTFGYYARGWYRQAPGKERELVAAISGSGGSTYYADSVKGRFTISRDNAKNTVYLQMNSLKPEDTAVYYCAATFHRLPKWGSPYYYWGQGTQVTVSS | high polyreactivity |
| QLQLVESGGGLFQAGGSLRISCAASGRTFLRNAMGSYRQPPGKEREFVATISAGGGSTYYADSVKGRFTISRDNAKNTVYLQMNSLKPEDTAVYYCAARYRAGPGYGMDSCGQGTQVTVSS | high polyreactivity |
| QLQLVESGGGLVQAAGSLRLSSAASGSIFPDNAKGWYRQAPAKERELVATITSGGDTNYADSVKGRFTISRDNAKNTVYLQMNSLKPEDTAVYYCAADVYPDWLVKYDYWGQGTQVTVSS | low polyreactivity |

| Sequence | polyreactivity (PSR sort gate) |
| --- | --- |
| QLQLVESGGGLVQAGASLRLSCAASGFIFKYNAMGWYRQAPCKERELVSAISRGTSTYYADSVKGRFTISRDNAKNTVYLQLNSLKPEDTAVYYCEATGRRPGQKYMGYDYWGQGTQVTVSS | high polyreactivity |
| QLQLVESGGGLVQAGCSLRLSCADSGRNYTMGRYRQAPGKERELVDASSKSGGSTSYADSVKGRFTISRDNAKNTVYLQLNSLKPEDTAVYYCATALRGSQAYSVRAMNYWGQATQVTVSS | high polyreactivity |
| QLQLVESGGGLVQAGGRLRLSCAASGITYFTYDMGWYRQAPGKERELVAAISGSGGSTYYADSVKGRFTISRDNAKNSFYLQMTSLKPEDTAVYYCAAEYTYGSPYDYWGQGTQVTVSS | low polyreactivity |
| QLQLVESGGGLVQAGGSIRLSCAASGSIFDWYAMGWYRQEPGKERELVARITSGGRTNYADSVKGRFTISRDNAKNTVYLQMNSLKPEDTAVYYCAAGRVSWSPYYYWGQGTQVTVSS | high polyreactivity |
| QLQLVESGGGLVQAGGSLRFSCAASGYISRRYAMVWSIQAPGKERELVAAITGGGGSTYYADSVKGRFTISRDNAKNTVYLQMNSLKPEFTAVYYCNAYWGRSGYAGGYWGQGTQVTVSS | high polyreactivity |
| QLQLVESGGGLVQAGGSLRISCAASRSTFENNAMGWYRQAPGKERELVASSTNYADSVKGRFTISRDNAKNTVYLQMNSLKPEDTAVYYCAREQGVNRNHDYWGQATQVTVSS | low polyreactivity |
| QLQLVESGGGLVQAGGSLRLSCAASGFIFYLYAMGWYRQAPGKDRELVAAISWSGGITYYADSVKGRFTISRDNAKNTVYLQMNSLKPEDTAVNYCNAVGASASDGDSWGQGTQVTVSS | high polyreactivity |
| QLQLVESGGGLVQAGGSLRLSCAASGRIFDYYAIGWYRQAPGKERQLVATINFSDGSTYYADSVKGRFTISRDNAKNTVYLQMNSLKPEDTAVYYCAAAGWEPYDSLDMNYWGQGTQVTVSS | low polyreactivity |
| QLQLVESGGGLVQAGGSLRLSCAASGRIFGNYAMGWYRQAPGKERELVASINIGGGSTYYADSVKGRFTISRDNAKNTVYLQMNSLKQEATAVYYCAAPNTTDYWPAQPGFDYWGQGTQVTVSS | low polyreactivity |
| QLQLVESGGGLVQAGGSLRLSCAASGRIFIYNAMGWYRQAPGKERELVAAINRSGVSTHYADSVKGRFTISRDNAKNTVYLQMNSLKPEDTAVYYCARTVYGARSFDYWGQGTQVTVSS | low polyreactivity |
| QLQLVESGGGLVQAGGSLRLSCAASGRIFQDNPKGWYRPPPSKERELVAAISISGGITYYADSVKGRFTISRDNAKNTVYLQMNSLKPEDTAVYYCNKSISARLPGRYDYWGQGTQVTVSS | low polyreactivity |
| QLQLVESGGGLVQAGGSLRLSCAASGRIFVLYTMGRNRQATGKERELVAAISNVGSTNYADSVKGRFTISRDNAKYTVYLQMNSLIPEDTAVYYCNDRRRYGWHLYYYWGQGTQVTVSS | high polyreactivity |
| QLQLVESGGGLVQAGGSLRLSCAASGRIFVRYAMGWYRQAPGKERELVAAISGRGTSTYYADSVKGRFTISRDNAKNTVYLQMNSLKPEDTAVYDCNTFSQPKWGTSDYDYWGQGTQVTVSS | high polyreactivity |
| QLQLVESGGGLVQAGGSLRLSCAASGRIYLYAMGWSRQAPGKERELVAAITTRAGRTYYADSVKGRFTISRDNAKNTVYFQMNSLKPEDTAVYYCAADGTRYPAYGYWGQGTQVTVSS | low polyreactivity |
| QLQLVESGGGLVQAGGSLRLSCAASGRTFRSYTMGRYRQAPGKERELVASITRSGVSTYYADSVKGRFTISRDNAKNTVYLQMNSLKPEDTAVYYCAAYSVFRSYDYWGQGTQVTVSS | high polyreactivity |
| QLQLVESGGGLVQAGGSLRLSCAASGSIFGDNAMGWYRQAPGKERELVAAISSSGGSTYADSVKGRFTISRDNAKNTVYLQMNSLKPEDTAVYYCATQIAWGTYVINPQMDYWGQGTQVTVSS | low polyreactivity |
| QLQLVESGGGLVQAGGSLRLSCAASGSIFGPYARGWYRQAPGKERELVAAITDGGGSTYYADSVKGRFTISRDNAKNTVYLQMNSLKPEETAVDYCAADHSSKSGPADTFYWFDYWGQGTQVTVSS | low polyreactivity |
| QLQLVESGGGLVQAGGSLRLSCAASGSILTINAMGWYSQAPGKERELVAAITGNGGSTDYADSVKVRFTISRDNAKNTVYLQMNSQKPEDTAVYYCAARVRGTGVYGGYNYWGQGTQVTVSS | high polyreactivity |
| QLQLVESGGGLVQAGGSLRLSCAASGSTFDTYAMGWYRHAPGKERELVAGINTDGDNTYYADSVKGRFTISRDNAKNTVYVQMNSLKPEDTAVYYCAARFYRASGRTPSYRGHHYDYWGQATQVTVSS | low polyreactivity |
| QLQLVESGGGLVQAGGSLRLSCAASGSTFRNNAMGWYRQAPGKERELVAAISRGGGSTYYADSVKWRFTISRDNAKNTVYLQMNSLKPDDTAVYYCARRPTGIYDYWGQGTQVTVSS | high polyreactivity |
| QLQLVESGGGLVQAGGSLRLSCAASGSTFRWYAKGWYRQAPGKERELVAAISYSGGRTYYADSVKGRFTISRDTAKNTVYLQMNSLKPEDTAVYYCAADYVESKSLLEYWGQGTQVTVSS | low polyreactivity |
